The text below walks through data of US20090304721A1, “TOXIN […] RECEPTOR ANTIBODIES” (priority 2005, published 2009).

One test relates to PC3 tumor. The test is described as follows: In vivo efficacy, subcutaneous tumor xenograft. Conditions: intraperitoneal, every fourth day, 5 doses; tumor volume by caliper. On the set-up: species or system Athymic nu/nu mice.
The next test has as its target T1, EphA2 (Homo sapiens, UniProt P29317).
T1 construct: endogenous in cells; host or cells: HUVEC (human)
Nature of the test: EphA2 receptor activation (phosphorylation, immunoprecipitation/Western). It counts as cell-based. As to conditions: HuVec cells. As for the experimental part:
Cells were grown overnight at 37° C./5% CO2 at a concentration of 0.5×10^6 cells per 3 ml of appropriate growth media per well in 6-well tissue culture plates. […] The cells were incubated for 15 minutes at 37° C./5% CO2 to activate EphA2 receptor. Subsequent to activation the cells were washed 1× with cold PBS and lysed on ice with 1% Triton X-100 lysis buffer containing Phosphatase Inhibitor Cocktails 1 and 2 (Sigma) and Complete Protease Inhibitor Cocktail Tablets (Roche), added as per manufacturer's recommendation. D7 α-EphA2 mAb and 50 μl of protein A sepharose beads pre-conjugated to rabbit anti-mouse IgG were mixed with lysate at 4° C. overnight to immunoprecipitate the proteins.
Protein lysates were resolved by 10% Bis-Tris NuPAGE Western gel and transferred electrophoretically to nitrocellulose membranes (Invitrogen) following manufacturer's protocol. […] See also Coffman et al., Cancer Res. 63: 7907-7912, 2003.

In the next test the test system is HuVec cells. The test is described as follows: Fluorescent visualization of internalization of α-EphA2 antibodies. As to conditions: 50 μg/ml Ab, 20 minutes at 37° C. It is filed as cell-based, human. As for the experimental part:
(§1) Cells (PC3, HUVEC, or CT26) were grown for 24-48 hours at 37° C./5% CO2 at a concentration of 2.5-5.0×10^4 cells per 400 μl of appropriate growth media per chamber on Nunc's Tek II 8-chamber slides. […] Cells were then washed 2× with PBS and cell-surface-bound primary Abs were allowed to internalize by covering the cells with growth media and incubation at 37° C./5% CO2 for 0 minutes, 20 minutes (FIGS. 18A-C and 19), or 60 minutes (FIG. 17).
(§2) Subsequent to internalization, cells were fixed (4% paraformaldehyde), permeabilized (0.5% Triton X-100), and labeled with secondary AlexaFluor 488 goat-α-human IgG Ab (Biosource), with 2× cold PBS washing in between steps.
Finally, the cells were covered with […] Mounting Media with DAPI (Vector Labs) and a coverslip prior to examination and photography with fluorescent confocal microscope. Results of the antibody internalization experiments are shown in the fluorescent microscopy pictures of FIGS. 16, 17, 18A, 18B, 18C, and 19 herein. EphA2 was rapidly internalized in these cell lines upon binding the agonistic EphA2 antibodies.

A further test deals with MDA-MB231 tumor. Nature of the test: In vivo efficacy, subcutaneous tumor xenograft. On the set-up: species or system Athymic nu/nu mice. As to conditions: intraperitoneal, every fourth day, 5 doses; tumor volume by caliper.
Another test has as its system PC3 cells. Nature of the test: Fluorescent visualization of internalization of α-EphA2 antibodies. Conditions: 50 μg/ml Ab, 20 or 60 minutes at 37° C. It is filed as cell-based, human. As for the experimental part: FIG. 18. […] PC3 cells were labeled with either human α-EphA2 mAb (G5; panels A and B) or R347 isotype control (panel C). Cell surface attached antibodies were then allowed to internalize by incubating the cells under growth conditions for either zero (non-internalized: panels A and C) or […] (internalized: panel B). All cells were then fixed (4% formaldehyde), permeabilized (0.5% Triton X-100), and stained with AlexaFluor 488-Ab prior to addition of antifade mounting media and fluorescent microscopy examination.
as §1, §2
Finally, the cells were covered with […] Mounting Media with DAPI (Vector Labs) and a coverslip prior to examination and photography with fluorescent confocal microscope. […]

T1 sequence (P29317 24-976): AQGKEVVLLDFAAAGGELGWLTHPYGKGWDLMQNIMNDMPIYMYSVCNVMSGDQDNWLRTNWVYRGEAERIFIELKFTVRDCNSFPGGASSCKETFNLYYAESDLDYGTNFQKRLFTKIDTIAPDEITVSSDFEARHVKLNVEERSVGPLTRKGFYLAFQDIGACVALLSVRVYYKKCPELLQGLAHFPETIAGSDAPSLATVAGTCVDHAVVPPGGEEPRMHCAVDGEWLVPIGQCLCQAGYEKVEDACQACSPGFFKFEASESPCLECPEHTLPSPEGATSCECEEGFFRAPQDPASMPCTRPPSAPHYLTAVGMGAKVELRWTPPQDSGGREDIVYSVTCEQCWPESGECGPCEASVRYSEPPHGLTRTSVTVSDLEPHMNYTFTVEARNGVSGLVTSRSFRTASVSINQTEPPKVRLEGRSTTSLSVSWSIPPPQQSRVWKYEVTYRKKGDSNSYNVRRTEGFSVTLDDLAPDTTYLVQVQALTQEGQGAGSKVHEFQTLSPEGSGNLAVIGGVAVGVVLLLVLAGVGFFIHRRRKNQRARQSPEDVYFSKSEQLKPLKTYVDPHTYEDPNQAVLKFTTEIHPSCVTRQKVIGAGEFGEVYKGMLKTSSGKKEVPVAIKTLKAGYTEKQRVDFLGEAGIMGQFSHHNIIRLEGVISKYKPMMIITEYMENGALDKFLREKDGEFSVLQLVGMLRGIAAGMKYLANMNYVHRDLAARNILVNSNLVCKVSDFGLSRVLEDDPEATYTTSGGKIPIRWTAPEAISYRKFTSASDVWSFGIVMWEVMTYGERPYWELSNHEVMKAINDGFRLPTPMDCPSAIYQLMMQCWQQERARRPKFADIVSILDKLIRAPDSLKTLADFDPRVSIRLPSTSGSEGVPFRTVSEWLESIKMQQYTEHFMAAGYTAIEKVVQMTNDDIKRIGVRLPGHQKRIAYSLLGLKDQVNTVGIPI
Experimental for MDA-MB231 tumor: (§3) Athymic nu/nu (Harlan, Somerville, N.J.) female mice 4-6 weeks of age were injected subcutaneously with 5×10^6 tumor cells. […] Each treatment group consisted of groups of mice ranging in number from 10-12.
(§4) Tumor volume measurements were taken with a caliper routinely (1-2 times/week) starting at the initiation of drug treatment.
Experimental for PC3 tumor: as §3, §4

B1: 3F2vcMMAE: anti-EphA2 antibody 3F2 conjugated to MMAE with a vc linker (conjugate)
VH: EVQLVESGGGVVRPGGSLRLSCAASGFTVSDYSMNWVRQAPGKGLEWIGFIRNKANAYTTEYSASVKGRFTISRDDSKNTLYLQMNSLKTEDTAVYYCTTYPRYHAMDSWGQGTMVTVSS
VL: AIQLTQSPSSLSASVGDRVTITCRASQSISNNLHWYLQKPGQSPQLLIYYGFQSISGVPSRFSGSGSGTDFTLTISSLQPEDFATYYCQQANSWPLTFGGGTKLEIK
modifications: non-natural residues
notes: anti-EphA2 antibody 3F2 conjugated to MMAE with a vc linker
Take B1: the “PC3 tumor growth in vivo” value in the test with PC3 tumor is listed as “specifically inhibit”.

B2: 3F2: humanized agonistic monoclonal antibody that binds EphA2; VH/VL SEQ ID NO: 63 and 64 (antibody, V domains shown)
VH: B1 VH
VL: B1 VL
modifications: Antibody Variable Heavy chain; Antibody Variable region
Consider B2, for which, in the test with EphA2, the EphA2 phosphorylation entry was “EphA2 phosphorylation”. Moreover, the internalization by immunofluorescence result in the test with HuVec cells was “Internalization”.

B3: G5vcMMAF: anti-EphA2 antibody G5 conjugated to MMAF with the valine-citrulline (vc) linker (conjugate)
VH: QMQLVQSGPEVKKPGTSVKVSCKASGFTFTDYSMNWVRQARGQRLEWIGFIRNKANDYTTEYSASVKGRVTITRDMSTSTAYMELSSLRSEDTAVYYCARYPRYHAMDSWGQGTSVTVSS
VL: DIQMTQSPSSLSASVGDRVTITCRASQSISNNLHWYQQKPGKAPKLLIKYVFQSISGVPSRFSGSGSGTDFTFTISSLQPEDFATYYCQQSNSWPLTFGGGTKVEIKG
modifications: non-natural residues
notes: anti-EphA2 antibody G5 conjugated to MMAF with the valine-citrulline (vc) linker
As to B3, the “MDA-MB231 tumor growth in vivo” value in the test with MDA-MB231 tumor is on record as “specifically inhibited”. For the same molecule, the “PC3 tumor growth in vivo” value in the test on PC3 tumor was “specifically inhibited”.

B4: G5: humanized agonistic monoclonal antibody that binds EphA2; VH/VL SEQ ID NO. 103 and 104 (antibody, V domains shown)
VH: B3 VH
VL: B3 VL
modifications: Antibody variable region
In the case of B4, the internalization by immunofluorescence entry in the test on PC3 cells is on record as “internalization”.
